Patent US20200048612

B1: HA-tagged JMJD3c (catalytic domain-containing C-terminus of JMJD3) (protein)
chain: QSEEIQGREKSRPDLGGASKAKPPTAPAPPSAPAPSAQPTPPSASVPGKKAREEAPGPPGVSRADMLKLRSLSEGPPKELKIRLIKVESGDKETFIASEVEERRLRMADLTISHCAADVVRASRNAKVKGKFRESYLSPAQSVKPKINTEEKLPREKLNPPTPSIYLESKRDAFSPVLLQFCTDPRNPITVIRGLAGSLRLNLGLFSTKTLVEASGEHTVEVRTQVQQPSDENWDLTGTRQIWPCESSRSHTTIAKYAQYQASSFQESLQEEKESEDEESEEPDSTTGTPPSSAPDPKNHHIIKFGTNIDLSDAKRWKPQLQELLKLPAFMRVTSTGNMLSHVGHTILGMNTVQLYMKVPGSRTPGHQENNNFCSVNINIGPGDCEWFAVHEHYWETISAFCDRHGVDYLTGSWWPILDDLYASNIPVYRFVQRPGDLVWINAGTVHWVQATGWCNNIAWNVGPLTAYQYQLALERYEWNEVKNVKSIVPMIHVSWNVARTVKISDPDLFKMIKFCLLQSMKHCQVQRESLVRAGKKIAYQGRVKDEPAYYCNECDVEVFNILFVTSENGSRNTYLVHCEGCARRRSAGLQGVVVLEQYRTEELAQAYDAFTLVRARRARGQRRRALGQAAGTGFGSPAAPFPEPPPAFSPQAPASTSR
B2: HA-tagged full-length JMJD3 (protein)
chain: MHRAVDPPGARAAREAFALGGLSCAGAWSSCPPHPPPRSAWLPGGRCSASIGQPPLPAPLPPSHGSSSGHPSKPYYAPGAPTPRPLHGKLESLHGCVQALLREPAQPGLWEQLGQLYESEHDSEEATRCYHSALRYGGSFAELGPRIGRLQQAQLWNFHTGSCQHRAKVLPPLEQVWNLLHLEHKRNYGAKRGGPPVKRAAEPPVVQPVPPAALSGPSGEEGLSPGGKRRRGCNSEQTGLPPGLPLPPPPLPPPPPPPPPPPPPLPGLATSPPFQLTKPGLWSTLHGDAWGPERKGSAPPERQEQRHSLPHPYPYPAPAYTAHPPGHRLVPAAPPGPGPRPPGAESHGCLPATRPPGSDLRESRVQRSRMDSSVSPAATTACVPYAPSRPPGLPGTTTSSSSSSSSNTGLRGVEPNPGIPGADHYQTPALEVSHHGRLGPSAHSSRKPFLGAPAATPHLSLPPGPSSPPPPPCPRLLRPPPPPAWLKGPACRAAREDGEILEELFFGTEGPPRPAPPPLPHREGFLGPPASRFSVGTQDSHTPPTPPTPTTSSSNSNSGSHSSSPAGPVSFPPPPYLARSIDPLPRPPSPAQNPQDPPLVPLTLALPPAPPSSCHQNTSGSFRRPESPRPRVSFPKTPEVGPGPPPGPLSKAPQPVPPGVGELPARGPRLFDFPPTPLEDQFEEPAEFKILPDGLANIMKMLDESIRKEEEQQQHEAGVAPQPPLKEPFASLQSPFPTDTAPTTTAPAVAVTTTTTTTTTTTATQEEEKKPPPALPPPPPLAKFPPPSQPQPPPPPPPSPASLLKSLASVLEGQKYCYRGTGAAVSTRPGPLPTTQYSPGPPSGATALPPTSAAPSAQGSPQPSASSSSQFSTSGGPWARERRAGEEPVPGPMTPTQPPPPLSLPPARSESEVLEEISRACETLVERVGRSATDPADPVDTAEPADSGTERLLPPAQAKEEAGGVAAVSGSCKRRQKEHQKEHRRHRRACKDSVGRRPREGRAKAKAKVPKEKSRRVLGNLDLQSEEIQGREKSRPDLGGASKAKPPTAPAPPSAPAPSAQPTPPSASVPGKKAREEAPGPPGVSRADMLKLRSLSEGPPKELKIRLIKVESGDKETFIASEVEERRLRMADLTISHCAADVVRASRNAKVKGKFRESYLSPAQSVKPKINTEEKLPREKLNPPTPSIYLESKRDAFSPVLLQFCTDPRNPITVIRGLAGSLRLNLGLFSTKTLVEASGEHTVEVRTQVQQPSDENWDLTGTRQIWPCESSRSHTTIAKYAQYQASSFQESLQEEKESEDEESEEPDSTTGTPPSSAPDPKNHHIIKFGTNIDLSDAKRWKPQLQELLKLPAFMRVTSTGNMLSHVGHTILGMNTVQLYMKVPGSRTPGHQENNNFCSVNINIGPGDCEWFAVHEHYWETISAFCDRHGVDYLTGSWWPILDDLYASNIPVYRFVQRPGDLVWINAGTVHWVQATGWCNNIAWNVGPLTAYQYQLALERYEWNEVKNVKSIVPMIHVSWNVARTVKISDPDLFKMIKFCLLQSMKHCQVQRESLVRAGKKIAYQGRVKDEPAYYCNECDVEVFNILFVTSENGSRNTYLVHCEGCARRRSAGLQGVVVLEQYRTEELAQAYDAFTLVRARRARGQRRRALGQAAGTGFGSPAAPFPEPPPAFSPQAPASTSR

Target: Histone H3 trimethylated at lysine 27 (H3K27me3), nucleosomal, in human ES cells

Row | Protein | H3K27me3 level after doxycycline-induced expression in JMJD3c-hESCs | H3K27me3 level by immunostaining and immunoblotting, 8 hours after introduction of synthetic mRNA into hESCs
1 | B1 | Dox treatment (1 µg/ml) induced HA-JMJD3c expression and a significant decrease in H3K27me3 in all hESCs | the introduction of the JMJD3c mRNA induced a more significant decrease in H3K27me3 as compared to the JMJD3f mRNA
2 | B2 | – | the introduction of the JMJD3c mRNA induced a more significant decrease in H3K27me3 as compared to the JMJD3f mRNA
